US7816334B2, “Materials and methods relating to immune responses to fusion proteins” (Cancer Research Technology Limited, priority 2000, dated 2010)

Target: T1, H2-K^b (Mus musculus, UniProt P01901)
T1 sequence (P01901 22-369): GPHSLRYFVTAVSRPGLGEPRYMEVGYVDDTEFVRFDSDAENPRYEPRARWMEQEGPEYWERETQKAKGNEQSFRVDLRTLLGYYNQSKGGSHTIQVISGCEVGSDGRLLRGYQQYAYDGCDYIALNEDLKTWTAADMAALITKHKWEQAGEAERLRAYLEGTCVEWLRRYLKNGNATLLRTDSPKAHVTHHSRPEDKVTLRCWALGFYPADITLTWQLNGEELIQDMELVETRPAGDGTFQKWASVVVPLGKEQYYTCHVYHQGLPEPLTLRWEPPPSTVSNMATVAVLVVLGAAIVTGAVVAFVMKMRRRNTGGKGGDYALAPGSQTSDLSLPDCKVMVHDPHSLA
T1 sequence (P01887 21-119 partner): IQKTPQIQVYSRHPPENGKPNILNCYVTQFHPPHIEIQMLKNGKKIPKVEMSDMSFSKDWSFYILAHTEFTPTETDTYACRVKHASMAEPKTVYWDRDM
Assay: Peptide binding assay (assembly/stabilization assay in RMA-S cell lysate)
Details: in vitro binding assay, compared with positive control peptide SEV
Method: Binding of each peptide to H2-K^b was performed using the assembly assay as described (29). This assay is based on the observation that, in a detergent lysate of RMA-S cells, K^b molecules are unstable and dissociate after an overnight incubation at 4° C. unless a stabilising (K^b-binding) peptide is added at the time of lysis. Only stabilised K^b molecules can therefore be recovered by immunoprecipitation with mAb Y3 after overnight incubation. The amount of recovered K^b is directly proportional to the amount of peptide bound, and the concentration of peptide required to effect 50% maximal recovery represents an approximate binding affinity (29). Recovery of H2-K^b heavy chains (HC) was quantitated after immunoprecipitation and SDS PAGE using AIDA (Fuji).

LNIYYRRL [peptide 2]
binding to H2-K^b: comparable to the positive control

SNWYFNHL [peptide 1]
binding to H2-K^b: comparable to the positive control
